The text below walks through data of paper PMC5553193 (2015).

Ends that are not written are not given here.

For the assay, the target named is concanavalin A (Canavalia ensiformis, UniProt P02866). The experiment in a line: ITC.
Chain of concanavalin A (P02866 whole entry, looked up): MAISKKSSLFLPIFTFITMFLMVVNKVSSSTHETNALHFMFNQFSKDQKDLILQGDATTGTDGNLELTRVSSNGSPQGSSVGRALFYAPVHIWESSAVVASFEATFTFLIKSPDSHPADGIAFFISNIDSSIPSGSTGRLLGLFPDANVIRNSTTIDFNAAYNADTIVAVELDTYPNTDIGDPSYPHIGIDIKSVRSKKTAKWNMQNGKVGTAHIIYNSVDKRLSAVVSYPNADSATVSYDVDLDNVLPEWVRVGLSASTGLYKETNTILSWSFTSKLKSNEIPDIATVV

Man-WYDLFDNINS [Man-WYDLFDNINS (L30)] had a Kd of 4.3 µM.

Man-WYDLF [Man-WYDLF (L37)] came in with a Kd of 4.6 µM.
